Publication PMC9254107, “The Toxoplasma glucan phosphatase TgLaforin utilizes a distinct functional mechanism that can be exploited by therapeutic inhibitors” (The Journal of Biological Chemistry, 2022)

B1: VHR (Vaccinia H1-related phosphatase) (Homo sapiens) (protein)
chain: MSGSFELSVQDLNDLLSDGSGCYSLPSQPCNEVTPRIYVGNASVAQDIPKLQKLGITHVLNAAEGRSFMHVNTNANFYKDSGITYLGIKANDTQEFNLSAYFERAADFIDQALAQKNGRVLVHCREGYSRSPTLVIAYLMMRQKMDVKSALSIVRQNREIGPNDGFLAQLCQLNDRLAKEGKLKP
B2: TgLaforin (Toxoplasma gondii ME49) (protein)
chain: MRVRFSVTAFVPPNAQLGVVGSAPFLGEWKLEHCVPLMPYSAPHPQGLEPSLWFRDIDLDPASCPNDTNDVHSTAAVSASCSADRRRCDLSRQSPHCFPSARSASPYMVEVSRGDCPFAVELMSTSQHVLSEFSKHNSPVYSAGEQRFRRSLPSSASFSSCTSSGSAVAATKCVWDAAAYRVATRAPEVQAVLESHPLRHCAFEYKFVLWYPPNGEIAVPYVPTTAGEEVPITYAGDSEVLNEESEGGARRRSWRKWLFPPSPSRCPAPPGPSESIVWEGFGPDSNRKFCFDPFDVVVDVNELGDLECLYICRIAHFRDPRAGGVGEYDLTTRFYNSVKSECRMHYSTIFPRFFVGSCPRQLKHIRHLKEELKVTCVVNLQTEQDLCNNYPDPIASSRSAEAVSQLYDGSGLRYVWLPTADMCDSARKIAVANAAFLLLGLFQSGHSVYMHCNAGVGRSVAAACAFLCFAVGLDLRKVNFLICARRPVAYWDEKAMKYGIGDYQAKFGHCRVVGEEAEERQHA

Substrate: O=[N+]([O-])c1ccc(OP(=O)(O)O)cc1
Assay: purified protein, by the assay type

Row | Protein | Km (pH 5.5, 37.0 °C) [mM] | Km (other: pH 5.5, 37 °C) [mM] | Vmax (other: pH 5.5, 37 °C) [nmol PO4/min]
1 | B1 | 2.5 ± 0.1 |  | 
2 | B2 |  | 1.0 ± 0.05 | 1.4 ± 0.02
